Experimental data: patent US20200016266A1

Target: recombinant extracellular domain of human VEGFR2 (rhVEGFR2), expressed in human cells (Sino Biological Inc.) (human) (UniProt P35968)
Assay: FRET fluorescence spectroscopy, 0.5 µM 488-VEGFR2 titrated with 594-Gal1, emission at 518 nm

recombinant extracellular domain of human VEGFR2 (rhVEGFR2), expressed in human cells (Sino Biological Inc.) (human), sequence (P35968 20-764 limits assumed): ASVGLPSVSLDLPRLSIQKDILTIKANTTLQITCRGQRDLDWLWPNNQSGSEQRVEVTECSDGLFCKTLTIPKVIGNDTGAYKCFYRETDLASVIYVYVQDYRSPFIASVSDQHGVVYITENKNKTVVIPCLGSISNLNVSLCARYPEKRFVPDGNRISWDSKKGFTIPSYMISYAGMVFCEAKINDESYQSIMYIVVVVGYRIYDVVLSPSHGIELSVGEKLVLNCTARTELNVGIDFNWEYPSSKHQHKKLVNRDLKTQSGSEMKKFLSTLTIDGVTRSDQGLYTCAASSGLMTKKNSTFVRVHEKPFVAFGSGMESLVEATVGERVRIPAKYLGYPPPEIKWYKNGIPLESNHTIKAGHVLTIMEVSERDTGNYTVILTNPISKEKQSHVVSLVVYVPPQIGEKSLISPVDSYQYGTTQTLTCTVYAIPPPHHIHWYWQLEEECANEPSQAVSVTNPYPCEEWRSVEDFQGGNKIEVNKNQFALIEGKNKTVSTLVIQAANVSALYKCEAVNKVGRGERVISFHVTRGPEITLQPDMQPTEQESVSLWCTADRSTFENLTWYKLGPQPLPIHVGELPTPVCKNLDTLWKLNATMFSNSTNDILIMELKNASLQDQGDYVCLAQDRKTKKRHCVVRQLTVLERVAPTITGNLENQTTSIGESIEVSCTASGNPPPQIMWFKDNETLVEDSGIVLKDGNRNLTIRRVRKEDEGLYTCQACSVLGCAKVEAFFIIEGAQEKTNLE

EC50 (read off the curve): 7 µM
Substance: Galectin-1 (human recombinant Gal1) (from UniProt P09382 2-135) (ligand)
